This is an account of results in patent US20140087995A1 (published 2014).

Numbered stars: 1 amine (or outer) side, 2 acyl side, 3 side chain; on linkers, the order of the positions; unused ones are H or OH. Bridge positions count the residues as written; N and C are the ends. Side chains are listed from the residue outwards. Ends that are not written are not given here. * marks the point of attachment. C20 diacid = O=C(O)CCCCCCCCCCCCCCCCCCC(=O)*; γGlu = O=C(O)[C@H](CCC(=O)[*:2])N[*:1]; AEEA = NCCOCCOCC(=O)O

For test [1], the target named is T1, human calcitonin receptor (human, UniProt P30988 25-474).
T1 construct: whole, on cells; also called hCTR; hCT
T1 sequence (looked up): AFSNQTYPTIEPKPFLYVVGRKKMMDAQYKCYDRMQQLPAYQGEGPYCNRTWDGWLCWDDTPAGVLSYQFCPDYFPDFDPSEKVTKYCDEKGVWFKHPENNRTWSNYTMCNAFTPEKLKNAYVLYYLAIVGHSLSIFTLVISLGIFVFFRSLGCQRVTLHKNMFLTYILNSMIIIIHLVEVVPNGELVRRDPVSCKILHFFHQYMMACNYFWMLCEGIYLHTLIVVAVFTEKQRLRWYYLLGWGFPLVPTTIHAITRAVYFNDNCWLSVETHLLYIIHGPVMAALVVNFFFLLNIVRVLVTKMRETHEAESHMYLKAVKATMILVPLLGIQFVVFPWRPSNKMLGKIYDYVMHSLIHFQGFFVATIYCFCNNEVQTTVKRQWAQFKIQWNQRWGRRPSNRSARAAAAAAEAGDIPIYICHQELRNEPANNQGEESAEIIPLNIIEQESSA
Description: ratio of IC50 at hCTR to IC50 at the human amylin receptor (reference). In a few lines:
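Scintillation proximity competition binding on cell membranes at 35 ng/μL with SPA beads, in 50 mM Hepes pH 7.4, 1 mM CaCl2, 5 mM MgCl₂, 0.1% OA, 0.02% Tween20. Incubated 120 min at 25° C with shaking. IC₅₀ from one-site competition fit.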

The target of test [2] is T1, human calcitonin receptor. The experiment in a line: SPA competition binding, membranes with human calcitonin receptor, displacement of 125I-calcitonin (Assay VII). An outline of the steps: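 BHK hCTR membranes 35 ng/μL + SPA beads 0.05 mg/well; buffer 50 mM Hepes pH 7.4, 1 mM CaCl2, 5 mM MgCl₂, 0.1% OA, 0.02% Tween20. 120 min, 25° C., shaking. Scintillation count; IC50 by one-site binding competition.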

B1: N^α1-[(4S)-4-carboxy-4-(19-carboxynonadecanoylamino)butanoyl]-[Glu14,Arg17,Pro21,Pro27,Pro31]-h-amylin (peptide)
peptide: {C20 diacid-γGlu}-KCNTATCATQRLAEFLRHSSPNFGAIPSSTPVGSNTY-NH2
modifications: disulfide 2-7
SMILES: CC[C@H](C)[C@H](NC(=O)[C@H](C)NC(=O)CNC(=O)[C@H](Cc1ccccc1)NC(=O)[C@H](CC(N)=O)NC(=O)[C@@H]1CCCN1C(=O)[C@H](CO)NC(=O)[C@H](CO)NC(=O)[C@H](Cc1c[nH]cn1)NC(=O)[C@H](CCCNC(=N)N)NC(=O)[C@H](CC(C)C)NC(=O)[C@H](Cc1ccccc1)NC(=O)[C@H](CCC(=O)O)NC(=O)[C@H](C)NC(=O)[C@H](CC(C)C)NC(=O)[C@H](CCCNC(=N)N)NC(=O)[C@H](CCC(N)=O)NC(=O)[C@@H](NC(=O)[C@H](C)NC(=O)[C@@H]1CSSC[C@H](NC(=O)[C@H](CCCCN)NC(=O)CC[C@H](NC(=O)CCCCCCCCCCCCCCCCCCC(=O)O)C(=O)O)C(=O)N[C@@H](CC(N)=O)C(=O)N[C@@H]([C@@H](C)O)C(=O)N[C@@H](C)C(=O)N[C@@H]([C@@H](C)O)C(=O)N1)[C@@H](C)O)C(=O)N1CCC[C@H]1C(=O)N[C@@H](CO)C(=O)N[C@@H](CO)C(=O)N[C@H](C(=O)N1CCC[C@H]1C(=O)N[C@H](C(=O)NCC(=O)N[C@@H](CO)C(=O)N[C@@H](CC(N)=O)C(=O)N[C@H](C(=O)N[C@@H](Cc1ccc(O)cc1)C(N)=O)[C@@H](C)O)C(C)C)[C@@H](C)O
notes: also called compound 31
Consider B1, for which the “Ratio hCT/hAmylin binding” value in test [1] stood at 16. Besides, the IC50 in test [2] was found to be 3.26 nM.

B2: N^α1-[(4S)-4-carboxy-4-[[(4S)-4-carboxy-4-(19-carboxynonadecanoylamino)butanoyl]amino]butanoyl]-[Glu14,Arg17,Pro21,Pro27,Pro37]-h-amylin (peptide)
peptide: {C20 diacid-γGlu-γGlu}-KCNTATCATQRLAEFLRHSSPNFGAIPSSTNVGSNTP-NH2
modifications: disulfide 2-7
SMILES: CC[C@H](C)[C@H](NC(=O)[C@H](C)NC(=O)CNC(=O)[C@H](Cc1ccccc1)NC(=O)[C@H](CC(N)=O)NC(=O)[C@@H]1CCCN1C(=O)[C@H](CO)NC(=O)[C@H](CO)NC(=O)[C@H](Cc1c[nH]cn1)NC(=O)[C@H](CCCNC(=N)N)NC(=O)[C@H](CC(C)C)NC(=O)[C@H](Cc1ccccc1)NC(=O)[C@H](CCC(=O)O)NC(=O)[C@H](C)NC(=O)[C@H](CC(C)C)NC(=O)[C@H](CCCNC(=N)N)NC(=O)[C@H](CCC(N)=O)NC(=O)[C@@H](NC(=O)[C@H](C)NC(=O)[C@@H]1CSSC[C@H](NC(=O)[C@H](CCCCN)NC(=O)CC[C@H](NC(=O)CC[C@H](NC(=O)CCCCCCCCCCCCCCCCCCC(=O)O)C(=O)O)C(=O)O)C(=O)N[C@@H](CC(N)=O)C(=O)N[C@@H]([C@@H](C)O)C(=O)N[C@@H](C)C(=O)N[C@@H]([C@@H](C)O)C(=O)N1)[C@@H](C)O)C(=O)N1CCC[C@H]1C(=O)N[C@@H](CO)C(=O)N[C@@H](CO)C(=O)N[C@H](C(=O)N[C@@H](CC(N)=O)C(=O)N[C@H](C(=O)NCC(=O)N[C@@H](CO)C(=O)N[C@@H](CC(N)=O)C(=O)N[C@H](C(=O)N1CCC[C@H]1C(N)=O)[C@@H](C)O)C(C)C)[C@@H](C)O
notes: also called compound 14
With B2, the “Ratio hCT/hAmylin binding” value in test [1] was 2.2. Besides, the IC50 in test [2] came out at 0.432 nM.

B3: N^α1-[(4S)-4-carboxy-4-(19-carboxynonadecanoylamino)butanoyl]-[His14,Arg17,Pro21,Pro27,Glu35]-h-amylin (peptide)
peptide: {C20 diacid-γGlu}-KCNTATCATQRLAHFLRHSSPNFGAIPSSTNVGSETY-NH2
modifications: disulfide 2-7
SMILES: CC[C@H](C)[C@H](NC(=O)[C@H](C)NC(=O)CNC(=O)[C@H](Cc1ccccc1)NC(=O)[C@H](CC(N)=O)NC(=O)[C@@H]1CCCN1C(=O)[C@H](CO)NC(=O)[C@H](CO)NC(=O)[C@H](Cc1c[nH]cn1)NC(=O)[C@H](CCCNC(=N)N)NC(=O)[C@H](CC(C)C)NC(=O)[C@H](Cc1ccccc1)NC(=O)[C@H](Cc1c[nH]cn1)NC(=O)[C@H](C)NC(=O)[C@H](CC(C)C)NC(=O)[C@H](CCCNC(=N)N)NC(=O)[C@H](CCC(N)=O)NC(=O)[C@@H](NC(=O)[C@H](C)NC(=O)[C@@H]1CSSC[C@H](NC(=O)[C@H](CCCCN)NC(=O)CC[C@H](NC(=O)CCCCCCCCCCCCCCCCCCC(=O)O)C(=O)O)C(=O)N[C@@H](CC(N)=O)C(=O)N[C@@H]([C@@H](C)O)C(=O)N[C@@H](C)C(=O)N[C@@H]([C@@H](C)O)C(=O)N1)[C@@H](C)O)C(=O)N1CCC[C@H]1C(=O)N[C@@H](CO)C(=O)N[C@@H](CO)C(=O)N[C@H](C(=O)N[C@@H](CC(N)=O)C(=O)N[C@H](C(=O)NCC(=O)N[C@@H](CO)C(=O)N[C@@H](CCC(=O)O)C(=O)N[C@H](C(=O)N[C@@H](Cc1ccc(O)cc1)C(N)=O)[C@@H](C)O)C(C)C)[C@@H](C)O
notes: also called compound 30
With B3, the “Ratio hCT/hAmylin binding” value in test [1] came to 23.6. In addition, the IC50 in test [2] was determined as 21.6 nM.

B4: N^α1N^α1-[(4S)-4-carboxy-4-(19-carboxynonadecanoylamino)butanoyl]-[Glu14,Arg17,Pro21,Pro27,Glu35]-h-amylin (peptide)
peptide: {C20 diacid-γGlu}-KCNTATCATQRLAEFLRHSSPNFGAIPSSTNVGSETY-NH2
modifications: disulfide 2-7
SMILES: CC[C@H](C)[C@H](NC(=O)[C@H](C)NC(=O)CNC(=O)[C@H](Cc1ccccc1)NC(=O)[C@H](CC(N)=O)NC(=O)[C@@H]1CCCN1C(=O)[C@H](CO)NC(=O)[C@H](CO)NC(=O)[C@H](Cc1c[nH]cn1)NC(=O)[C@H](CCCNC(=N)N)NC(=O)[C@H](CC(C)C)NC(=O)[C@H](Cc1ccccc1)NC(=O)[C@H](CCC(=O)O)NC(=O)[C@H](C)NC(=O)[C@H](CC(C)C)NC(=O)[C@H](CCCNC(=N)N)NC(=O)[C@H](CCC(N)=O)NC(=O)[C@@H](NC(=O)[C@H](C)NC(=O)[C@@H]1CSSC[C@H](NC(=O)[C@H](CCCCN)NC(=O)CC[C@H](NC(=O)CCCCCCCCCCCCCCCCCCC(=O)O)C(=O)O)C(=O)N[C@@H](CC(N)=O)C(=O)N[C@@H]([C@@H](C)O)C(=O)N[C@@H](C)C(=O)N[C@@H]([C@@H](C)O)C(=O)N1)[C@@H](C)O)C(=O)N1CCC[C@H]1C(=O)N[C@@H](CO)C(=O)N[C@@H](CO)C(=O)N[C@H](C(=O)N[C@@H](CC(N)=O)C(=O)N[C@H](C(=O)NCC(=O)N[C@@H](CO)C(=O)N[C@@H](CCC(=O)O)C(=O)N[C@H](C(=O)N[C@@H](Cc1ccc(O)cc1)C(N)=O)[C@@H](C)O)C(C)C)[C@@H](C)O
notes: also called compound 22
Regarding B4, in test [1], the “Ratio hCT/hAmylin binding” value stood at 12.3. Besides, in test [2], the IC50 was found to be 9.73 nM.

B5: N^ε1-[2-[2-[2-(19-carboxynonadecanoylamino)ethoxy]ethoxy]acetyl]-[Arg17,Pro21,Pro27]-h-amylin (peptide)
peptide: K([AEEA-C20 diacid])CNTATCATQRLANFLRHSSPNFGAIPSSTNVGSNTY-NH2
modifications: disulfide 2-7; N-terminus assumed
SMILES: CC[C@H](C)[C@H](NC(=O)[C@H](C)NC(=O)CNC(=O)[C@H](Cc1ccccc1)NC(=O)[C@H](CC(N)=O)NC(=O)[C@@H]1CCCN1C(=O)[C@H](CO)NC(=O)[C@H](CO)NC(=O)[C@H](Cc1c[nH]cn1)NC(=O)[C@H](CCCNC(=N)N)NC(=O)[C@H](CC(C)C)NC(=O)[C@H](Cc1ccccc1)NC(=O)[C@H](CC(N)=O)NC(=O)[C@H](C)NC(=O)[C@H](CC(C)C)NC(=O)[C@H](CCCNC(=N)N)NC(=O)[C@H](CCC(N)=O)NC(=O)[C@@H](NC(=O)[C@H](C)NC(=O)[C@@H]1CSSC[C@H](NC(=O)[C@@H](N)CCCCNC(=O)COCCOCCNC(=O)CCCCCCCCCCCCCCCCCCC(=O)O)C(=O)N[C@@H](CC(N)=O)C(=O)N[C@@H]([C@@H](C)O)C(=O)N[C@@H](C)C(=O)N[C@@H]([C@@H](C)O)C(=O)N1)[C@@H](C)O)C(=O)N1CCC[C@H]1C(=O)N[C@@H](CO)C(=O)N[C@@H](CO)C(=O)N[C@H](C(=O)N[C@@H](CC(N)=O)C(=O)N[C@H](C(=O)NCC(=O)N[C@@H](CO)C(=O)N[C@@H](CC(N)=O)C(=O)N[C@H](C(=O)N[C@@H](Cc1ccc(O)cc1)C(N)=O)[C@@H](C)O)C(C)C)[C@@H](C)O
notes: also called compound 43
Regarding B5, in test [1], the “Ratio hCT/hAmylin binding” value was 34.7. Moreover, the IC50 in test [2] was 2.64 nM.
On to {C20 diacid-γGlu}-KCNTATCATQRLAEFLRHSSPNFGAILPSTNVGSETY-NH2 (disulfide 2-7, also called compound 33), for which, in test [1], the “Ratio hCT/hAmylin binding” value was found to be 3.9. The IC50 in test [2] is 3.61 nM.

B6: N^α1-[(4S)-4-carboxy-4-(19-carboxynonadecanoylamino)butanoyl]-[Glu14,Arg17,Pro21,Pro27,Pro37]-h-amylin (peptide)
peptide: {C20 diacid-γGlu}-KCNTATCATQRLAEFLRHSSPNFGAIPSSTNVGSNTP-NH2
modifications: disulfide 2-7
SMILES: CC[C@H](C)[C@H](NC(=O)[C@H](C)NC(=O)CNC(=O)[C@H](Cc1ccccc1)NC(=O)[C@H](CC(N)=O)NC(=O)[C@@H]1CCCN1C(=O)[C@H](CO)NC(=O)[C@H](CO)NC(=O)[C@H](Cc1c[nH]cn1)NC(=O)[C@H](CCCNC(=N)N)NC(=O)[C@H](CC(C)C)NC(=O)[C@H](Cc1ccccc1)NC(=O)[C@H](CCC(=O)O)NC(=O)[C@H](C)NC(=O)[C@H](CC(C)C)NC(=O)[C@H](CCCNC(=N)N)NC(=O)[C@H](CCC(N)=O)NC(=O)[C@@H](NC(=O)[C@H](C)NC(=O)[C@@H]1CSSC[C@H](NC(=O)[C@H](CCCCN)NC(=O)CC[C@H](NC(=O)CCCCCCCCCCCCCCCCCCC(=O)O)C(=O)O)C(=O)N[C@@H](CC(N)=O)C(=O)N[C@@H]([C@@H](C)O)C(=O)N[C@@H](C)C(=O)N[C@@H]([C@@H](C)O)C(=O)N1)[C@@H](C)O)C(=O)N1CCC[C@H]1C(=O)N[C@@H](CO)C(=O)N[C@@H](CO)C(=O)N[C@H](C(=O)N[C@@H](CC(N)=O)C(=O)N[C@H](C(=O)NCC(=O)N[C@@H](CO)C(=O)N[C@@H](CC(N)=O)C(=O)N[C@H](C(=O)N1CCC[C@H]1C(N)=O)[C@@H](C)O)C(C)C)[C@@H](C)O
notes: also called compound 8
For the molecule B6, the “Ratio hCT/hAmylin binding” value in test [1] turned out to be 0.5. For the same molecule, the IC50 in test [2] was 0.038 nM.

The IC50 is the concentration needed to halve the response being measured.
